Here are results for two substances from patent US20210395372A1.

Assay [1] deals with human Met receptor on cells (human) (UniProt P08581). Description: cell-based or functional assay.
For assay [2], the target named is human Met-Fc chimera (human) (UniProt P08581). Description: ELISA.
Chain of human Met-Fc chimera (human) (P08581 25-932, change not shown): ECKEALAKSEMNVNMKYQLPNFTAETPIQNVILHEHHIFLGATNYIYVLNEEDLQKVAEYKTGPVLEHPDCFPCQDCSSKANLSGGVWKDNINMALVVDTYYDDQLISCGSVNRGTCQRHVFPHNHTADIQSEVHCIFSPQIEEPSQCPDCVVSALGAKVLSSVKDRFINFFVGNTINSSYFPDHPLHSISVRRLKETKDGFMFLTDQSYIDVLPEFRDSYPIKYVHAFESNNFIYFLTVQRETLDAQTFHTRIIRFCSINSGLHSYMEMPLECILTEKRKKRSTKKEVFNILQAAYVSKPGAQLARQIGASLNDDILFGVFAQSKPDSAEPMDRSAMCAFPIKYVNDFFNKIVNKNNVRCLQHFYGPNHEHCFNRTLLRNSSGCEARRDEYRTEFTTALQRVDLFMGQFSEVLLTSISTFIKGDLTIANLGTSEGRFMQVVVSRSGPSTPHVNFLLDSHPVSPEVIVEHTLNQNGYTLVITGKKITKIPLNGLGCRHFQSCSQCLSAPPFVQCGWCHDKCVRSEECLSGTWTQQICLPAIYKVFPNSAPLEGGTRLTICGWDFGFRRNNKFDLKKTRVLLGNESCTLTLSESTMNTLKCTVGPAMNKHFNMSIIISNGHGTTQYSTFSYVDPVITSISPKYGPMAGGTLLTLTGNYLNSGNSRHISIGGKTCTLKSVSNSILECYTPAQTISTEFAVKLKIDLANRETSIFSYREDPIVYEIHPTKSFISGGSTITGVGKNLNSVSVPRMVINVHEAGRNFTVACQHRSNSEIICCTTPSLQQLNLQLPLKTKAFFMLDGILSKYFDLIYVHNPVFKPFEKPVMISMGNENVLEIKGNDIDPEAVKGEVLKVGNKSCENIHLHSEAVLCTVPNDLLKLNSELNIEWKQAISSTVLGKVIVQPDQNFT

Chain of human Met receptor on cells (human) (P08581 25-1390): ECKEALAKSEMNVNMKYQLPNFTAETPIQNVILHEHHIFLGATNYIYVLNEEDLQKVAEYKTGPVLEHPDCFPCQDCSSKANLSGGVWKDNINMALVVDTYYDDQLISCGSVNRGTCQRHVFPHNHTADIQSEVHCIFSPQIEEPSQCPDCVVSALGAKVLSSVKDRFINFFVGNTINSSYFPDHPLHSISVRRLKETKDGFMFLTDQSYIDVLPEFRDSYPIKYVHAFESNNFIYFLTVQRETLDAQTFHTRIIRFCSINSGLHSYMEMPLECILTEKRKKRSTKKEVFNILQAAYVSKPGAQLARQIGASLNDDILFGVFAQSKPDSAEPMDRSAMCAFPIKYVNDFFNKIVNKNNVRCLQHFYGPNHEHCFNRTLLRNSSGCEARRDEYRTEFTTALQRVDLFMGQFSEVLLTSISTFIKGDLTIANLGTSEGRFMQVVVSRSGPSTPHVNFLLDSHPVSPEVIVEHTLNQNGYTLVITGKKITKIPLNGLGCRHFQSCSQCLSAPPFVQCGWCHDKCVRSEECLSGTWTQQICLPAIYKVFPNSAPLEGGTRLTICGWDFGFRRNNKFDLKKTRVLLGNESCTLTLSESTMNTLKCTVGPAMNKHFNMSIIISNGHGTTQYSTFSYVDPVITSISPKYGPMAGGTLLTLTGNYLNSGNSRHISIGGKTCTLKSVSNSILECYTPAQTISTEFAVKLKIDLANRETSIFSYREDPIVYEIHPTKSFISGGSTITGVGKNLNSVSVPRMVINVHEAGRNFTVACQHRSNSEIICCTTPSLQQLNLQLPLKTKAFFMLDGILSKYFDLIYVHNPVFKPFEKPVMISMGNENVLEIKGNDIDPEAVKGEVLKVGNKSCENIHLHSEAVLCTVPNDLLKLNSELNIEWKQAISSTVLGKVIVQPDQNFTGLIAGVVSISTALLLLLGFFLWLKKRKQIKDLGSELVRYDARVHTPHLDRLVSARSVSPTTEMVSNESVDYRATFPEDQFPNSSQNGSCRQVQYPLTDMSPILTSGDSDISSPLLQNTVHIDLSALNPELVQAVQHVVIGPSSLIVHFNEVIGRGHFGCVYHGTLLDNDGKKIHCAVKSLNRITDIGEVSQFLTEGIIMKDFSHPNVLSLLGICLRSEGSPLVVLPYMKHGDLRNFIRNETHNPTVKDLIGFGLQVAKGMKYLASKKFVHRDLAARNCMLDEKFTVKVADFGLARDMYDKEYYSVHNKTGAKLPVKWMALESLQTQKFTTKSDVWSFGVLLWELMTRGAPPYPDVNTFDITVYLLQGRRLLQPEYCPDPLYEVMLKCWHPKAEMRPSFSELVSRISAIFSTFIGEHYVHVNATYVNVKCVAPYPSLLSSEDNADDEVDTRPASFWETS

Turning to chOA-DN30 (antibody), in assay [1], the percentage of GTL-16 cells in S phase (EdU), 1 uM antibody was 15% and the reduction of proliferating GTL-16 cells versus control (EdU), 1 uM antibody worked out at 52%. In assay [2], chOA-DN30 displayed a Kd of 0.319 nM.
